We go through 41 sequences from the nanobody polyreactivity screen of Harvey et al. (2022).

A short description of the data set: yeast display, Sf9 membrane polyspecificity reagent, FACS + sequencing; frameworks hold sequencing errors. The method in brief:
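Nanobodies from a synthetic yeast display library (Saccharomyces cerevisiae BJ5465), induced 36–48 hours with galactose, were stained 1 hour at 4 °C with 10% biotinylated, detergent-solubilized Sf9 membrane reagent, enriched on streptavidin microbeads, then FACS-sorted. Anti-HA (expression) and streptavidin (reagent binding) fluorescence set low and high (top ~1%) gates. Polyreactivity labels come from the gate of origin. Genes were colony-PCR amplified, MiSeq 2 × 250 sequenced and filtered by CDR length.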
Take “QVQLVESGGGLVQAGGSLRLSCAASGSTFTNYAMGWYRQAPGKERELVAAITSGGSTYYADSVKGRFTISRDNAKNTVYLQMNSLKPEDTAVYYCNAVYFSEYDSWGQGTQVTVSS”: the “polyreactivity (PSR sort gate)” value is listed as “low polyreactivity”.

For the sequence “QVQLVESGGGLVQAGGSLRLSCAASGIIFRDNAMGWYRQAPGKERELVAAIDSSGGTTYADSVKGRFTISRDNAKNTVYLQTHSLTPEDTAVYYCATEVYWTVSYYGYDYYGGNYYYWGQGTQVTVSS”, the “polyreactivity (PSR sort gate)” value is recorded as “low polyreactivity”.

On to “QVQLVESGGGLVQAGGSLRLSCAASGSTFRFYAMGWYRQAPGKERELVAAISSGGSTNYADSVKGRFTISRDNAKNTVYLQMNSLKPEDTAVYYCNAEDYNGRQYYHKMDYWGQGTQVTVSS”, for which the “polyreactivity (PSR sort gate)” value was “high polyreactivity”.

As for “QVQLVESGGVLVQAGGSLRLSCAASGSIFVPYAMGWYRQAPGKERELVAAISSGGSTNYADSVKGRFTISRDNAKNTVYLLMNSLKPEDTAVYYCAADRKYFYLWLDQEHRYYWGQGYQVTVSS”, the “polyreactivity (PSR sort gate)” value was “low polyreactivity”.

Turning to “QVQLVESGGGLVQAGGSLRLSCAASGRIFVNNAMGWYRQAPGKERELVATITSGGSTYYADSVKGRFTISRDNAKNTVYLQMNSLKPEDSAVYYCAARRWYVHYFAYGYWGQGTQVTVSS”, the “polyreactivity (PSR sort gate)” value is recorded as “low polyreactivity”.

With “QVQLVESGGGLVQAGGSLRLSCAASGLTFKPYAMVWYRQAPGKEREFVAAISWRSGSTYYADSVKGRFTISRDYEKNTVYLQMNRLKPEDTAVYYCNALYRVFVGTYDFWGQGTHVTVSS”, the “polyreactivity (PSR sort gate)” value is given as “high polyreactivity”.

For the sequence “QVQLVESGGGLVQAGGSLRLSCAASGLIFWINAMGWYRQAPWKERDLVAAITNSGGDTYYADSVKGRFTISRDNAKKTVYLQMNSLKTEDTAVYYCNADGTKWVRETYDYWGQGTQVTVSS”, the “polyreactivity (PSR sort gate)” value was “low polyreactivity”.

Take “QVQLEESGGGLVQAGGSLRLSCAASGSIFFWYAMGWSRQAPGKERELVAAISSSGSTNYADSVKGRFTISRDNAKNTVYLQMNSLKPEDTAVYYCATRKYVYYPVQYEFWGQGTQVTVSS”: the “polyreactivity (PSR sort gate)” value is recorded as “high polyreactivity”.

Regarding “QVQLVESGGGLVQAGGSLRLSCAASGFTLQGYAMGWYRQAPGKERELVAAIRWIGTSTYYADSVKGRFTISRDYAKNTVYFQMNSLKPEDTAVYYCAAYRYNTPFGYWGQGTQVTVSS”, the “polyreactivity (PSR sort gate)” value was “high polyreactivity”.

As to “QVQLVESGGGLVQAGGSLRLSCAASGFTFNYYAMGWYRQATGKERELVAAIDSGGNTYYADSVKGRFTISRDNAKNNVYLLLNSLKPEDTAVYYCDAYSDYQYDYWGQGTQVTVSS”, the “polyreactivity (PSR sort gate)” value is “low polyreactivity”.

Regarding “QVQLVESGGGLVQAGGSLRLSCAASGRTFDYNAMGWYRQAPGKEWELVADIRLISGNTYYADSVKGRFTISRDNAKNTVYLQMNSLKPEETAVYYCAATSDGVPSLYGGMDYRGQGTQVTVSS”, the “polyreactivity (PSR sort gate)” value is recorded as “low polyreactivity”.

For “QVQLEETRGCLVQAGGSLRLSCAASGIILYAYAMGWYRQAPRKERELVAAITRRGGRTYYADSVKGRFTISRDNAKYTVYLQMNSLKPVDTAVYYGATVQSGRVRTYDYWGQGTLVTVSS”, the “polyreactivity (PSR sort gate)” value was “high polyreactivity”.

For “QVQLVESGGGLVQAGGSLRLSCAASGLTFYDYAMGWYRQAPGKERELVADIDFNGGSTSYADSVKGRFTISRDNAKNTVYLQMNSLKREDTAVYYCNTRDRGDVVTGLDYWGQGTQVTVSS”, the “polyreactivity (PSR sort gate)” value is listed as “low polyreactivity”.

With “QVQLVESGGGLVQAGGSLRLSCAASGRTGVNAMGWYRQAPGKERELVAAINNGDSTYYADSVKGRFTISRDNAKKTVYLQMNSLNPEDTAVYYCAAGLDEGDYWQESDYWGQGTQVTVSS”, the “polyreactivity (PSR sort gate)” value is reported as “low polyreactivity”.

With “QVQLVESGGGLVQAGGSLRLSCAASGFIFDWNTMGWYRQAPGKERELVAAITESSGSTYYADSVKGRFTISRDNAKNTVYLQMNSLKPEDTAVYYCAAELDVYVSIGSRFHFDYWGQGTQVTVSS”, the “polyreactivity (PSR sort gate)” value is “low polyreactivity”.

Turning to “QVQLVESGGGLVQAGGSLRLSCAASGRIFGDNAMGWYRQAPGKEREFVAAISWSGGTTYYADSVKGRFTISRDNAKNTVYLQMNSLKPEDTAVYYCAADYTRGYDYWGQGTQVTVSS”, the “polyreactivity (PSR sort gate)” value is given as “low polyreactivity”.

With “QVQLVESGGGLVQPGGSLRLSCAASGGTFYRYAMGWYIQAPGKERELVAAISSRGGSTYYADSVKGRYTISRDNAKNTVYLQMNSLKPEDTAVYYCAALFYLTQWQYDYWGQGTQVTVSS”, the “polyreactivity (PSR sort gate)” value is “high polyreactivity”.

Turning to “QVQLVESGGGLVQEGGSLRLSCAASGTFYDYVMGLYRPAPGKERELVATISDNDGSTYYADSVKGRFTISRDNAKNTVYLQKNSLKPEDTALYYCNAGRTWPIVADYSWLSYGSWGQGTQVTVSS”, the “polyreactivity (PSR sort gate)” value is recorded as “high polyreactivity”.

For “QVQLVESGGGLVQAGGSLRLSCAASGRTLGRYAMGWYRPAPGKERELVAAITRRGGITYYADSVKGRFTISRDNAKNTVYLQMNSLKPEDTAVYYCNAVNKSLQPVRDVYPLYRHDYWGQGTQVTVSS”, the “polyreactivity (PSR sort gate)” value is “high polyreactivity”.

With “QVQLVESGGGLVQAGGSLRLSCAASGRIFAYNALGWYRQAPGKERELVAAISWSGSSTYYADSVKGRFTISRDNAQNRVYLQMNSLTPEDTAVYYCAATPWYYYSTSYAYYDWGQGTQVTVSA”, the “polyreactivity (PSR sort gate)” value was “high polyreactivity”.

For the sequence “QFQLVESGGGLVPARGSLRLSCAASGLIFKRNAMGWYRQAPGKERELDASNSGRGGSTYYADSLTGRFTISRDNAKKTVYLQMNSLKPEDTAVYFCAADGPPLGRPSYRLFYGYDYWGQGSQVTVSS”, the “polyreactivity (PSR sort gate)” value is “high polyreactivity”.

Consider “QVQLVESGGGLVQAGGSLRLSCAASGFIFAVNAMGWYRQAPGKERELVATIRATTTSTYADSVKGRFTISRDNAKNTVYLQMNSLKPEDTAVYYCATDVRTISFEYDYWGQGTQVTVSS”, for which the “polyreactivity (PSR sort gate)” value is “low polyreactivity”.

With “QVQLVESGGGLVQAGGSLRLSCAASGSIFHDNAKGWYRQAPGKERELVAAINRGGSTHYADSVKGRFTISRDNAKNTVYLQMNSLKPEDTAVYYCNTVGRGYDYDYWGQGTQVTVSS”, the “polyreactivity (PSR sort gate)” value was “low polyreactivity”.

For “QVQLVESGGGLLQAGGSLRLSCAASGRIFSFNTMGWYRQAPGKERELVAAISRGGSTYYADSVKGRFTNSRDNAKNTVYLQMNSMKPEDTAVYYCNALLPPGSRKYNYWGQGSQVTVSS”, the “polyreactivity (PSR sort gate)” value is “high polyreactivity”.

For “QVQLVESGGGLVQAGGSLRLSCAASGLTFIRYAMGWYRQAPGKERELVASISRGGSTYYADSVKGRVTISRDNAKNTVYLQMNSLKPEDTAVYYCAAQHVGHNYYNSGFYYWGQGTQVTVSS”, the “polyreactivity (PSR sort gate)” value is “low polyreactivity”.

Turning to “QFQLVESGGGLVQAGGSLRLSCAASGRIFVINAMGWYRKATGIETELVAAISSSGGSTSYADSVKGRFTISRDNAKNTVYLQMNSLKPEDTAVYYCADKPRVRRDDGYYWGQGTLVTVSS”, the “polyreactivity (PSR sort gate)” value is “high polyreactivity”.

As to “QVQLQESGGGLVQAGGSLRQSCTASGTIYYTSAMGWYRHAPGKDREFVAAIASGSSTNYADSVKGRFTISRDNAKNTVYLKMNSLKPEVTAVYYCAASERVRNIYQYWGQGTQVSVSS”, the “polyreactivity (PSR sort gate)” value is given as “high polyreactivity”.

Consider “QVQLVESGGGLVQEGGSLRLSCAASGSIYGWDAMGWYRQAPGQEREYVAAIDYSDGGRTYSADSVKGRFTISRDPAKNTVYLQMNSLKPADTAVYYCAAGYVYPHYFIDEYWGQGTQVTVSS”, for which the “polyreactivity (PSR sort gate)” value is given as “high polyreactivity”.

Consider “QVQLVESGGGLVQAGGSLRLSCAASGSIFPGYALGWYRQAPGKERELVATIRWSSGSRTNYADSVKGRFTISRENAKKTVYLQMNSLKPEDSAVYYCAAGSRRYKYDYWGQGTQVTVSS”, for which the “polyreactivity (PSR sort gate)” value is “high polyreactivity”.

Turning to “QVQLVESGGGLVQAGGSLRLSCAASGRILWYNAMGWYRQAPGKERELVAAINRGVSTNYADSVKGRFTISRDNAKNTVYLQMNSLKPEDTEVYYCAAVHDRLWYRSAYDYWRQGTQVTVSS”, the “polyreactivity (PSR sort gate)” value is reported as “low polyreactivity”.

As for “QVQLVESGGGLVQAGGSLRLSCAASGSTFPGNAMGWYRPAPGKERELVARINDGADTNYADSVKGRFTISRDNAKNTVYLQMNSLKPEDTAVYYCAKPYYDGRTHFDSWGQGTQVTVSS”, the “polyreactivity (PSR sort gate)” value was “low polyreactivity”.

Take “QVQLQESGGGLAQAGGCLRLSCAASGTIFPADSMGWYRQAPGIERELVAGITSGANTYYADSVKGRFTISHDNAKNTVYLQMDSLIPEDIAVYYCAAPGSSTYDLEYWGQGTQGTVSS”: the “polyreactivity (PSR sort gate)” value is reported as “high polyreactivity”.

As to “QVQLVESGGGLVQAGGSLRLSCAASGSNFAGYAMGWYRPAPGKERALGAAISWSGGSTYYADSVKGRFTISRDNAKNTVYLQINSLKPEDTAVYYCNALRYGWKYNYWGQGTQVTVSS”, the “polyreactivity (PSR sort gate)” value was “high polyreactivity”.

As for “QVQLVESGGGLVQAGGSLRLSCAASGITRGSNAMGWYRQAPGTERELVAAITSGSSTYYADSVKGRFTISRDNAKNTVYLQMNSLKPEDTAVYYCAAEWWDVIAPYEYWGQGTQVTVSS”, the “polyreactivity (PSR sort gate)” value is reported as “low polyreactivity”.

“QVQLVESGGGLVQAGGSLSLSCAASGITFSYYAMGWYRQAPGNERELVASINFSGGSTSYADSVKGRFTISRDNAKITVYFQMNSLKPEDPAVYYCAAQIWSKDEKHDYWGQGTKVTVSS”: the “polyreactivity (PSR sort gate)” value was “high polyreactivity”.

Take “QVQMQESGGGLVQAGGSLRLICAASGTILYSLGMGWYRQATGKRREFVASITWGTTTNYAERVKGRFTISSDNAKNTVYPKIISLKPEVTAVYYCASPPFGDSSFHYWGQGTQVTVSS”: the “polyreactivity (PSR sort gate)” value is reported as “low polyreactivity”.

With “QVQLVESGGGLVQAGGSLRISCAASGSIFATYAMGWYRQAPGKERELVAAISWSSGSTYYADSVKGRFTISRDNAKNTVYLQMNSLNPEDTAVYYCNKDWLAYDSLRVTSTIAFDYWGQGSQVTVSS”, the “polyreactivity (PSR sort gate)” value is given as “low polyreactivity”.

As for “QVQLVESGGGLVQAGGSLRLSCAASGSIFPAYAMGWYRQAPGKERELVASITGSGGSTYYADSVKGRFTISRDIAKNTVYLQMNSLKPEDTAVYYCNARYYVYSATVDRYYHFYYWGQGTQVTVSS”, the “polyreactivity (PSR sort gate)” value is given as “high polyreactivity”.

Turning to “QVQLVESGGGLVQAGGSLRLSCAASGRTFYANAMGWYRQAPGKERELVAAISSSGSRTYYADSVKGRFTISRDNAKNTVYLQMNSLKPEDTAVYYCNAAAPYLTRQHWARDYWGQGTQVTVSS”, the “polyreactivity (PSR sort gate)” value is on record as “high polyreactivity”.

In the case of “QVQLVESGGGIVQAGGSLRLSCAASGRTFQFYAMGWYRQEPGKERELVASITWSPVRTYYADSVKGRFTNSRDNAKNTVYLQMNSLKQEDTAVYSCAIDWDYRLMDYWGQGTQVTVSS”, the “polyreactivity (PSR sort gate)” value is “low polyreactivity”.

“QVQLVESGGGLVQAGGSLRLSCAASGRIFVYNAMGWYRQAPGKERELVASISWSGDSTYADSVKGRFTISRDNAKNTVYLQMNSLKPEDTAVYYCAAYSQADYQNMDYWGQGTQVTVSS”: the “polyreactivity (PSR sort gate)” value is “low polyreactivity”.
